US20230391856A1 (ICAHN SCHOOL OF MEDICINE AT MOUNT SINAI, published 2023)

How the values were obtained:
[1] = biological target: T1, SARS-CoV-2 spike receptor binding domain (RBD) (SARS-CoV-2, UniProt P0DTC2 319-541); test: RBD/ACE2 competition; RBD binding to ACE2 on HEK-293 cells
T1 construct: also called SARS-CoV RBD

[2] = biological target: T2, SARS-CoV-2 spike protein (full length, wild type) (SARS-CoV-2, UniProt P0DTC2 14-1273); test: cell-based or functional assay
[3] = biological target: T1, SARS-CoV-2 spike receptor binding …; test: RBD/ACE2 competition; RBD binding to ACE2 on HEK-293 cells; remark: listed apart in the source
[4] = biological target: T2, SARS-CoV-2 spike protein (full length, …); test: cell-based or functional assay; remark: listed apart in the source

B1: SARS2-10D6_f3 (antibody, V domains shown)
VH: EVQLVETGGGLIQPGGSLRLSCAASGITVSSNYMNWVRQAPGKGLEWVSVIYSGGSTYYADSVKGRFTISRDNSKNTLYLQMNSLRAEDTAVYYCARDLELAGAFDIWGQGTMVTVSL
VL: DIQLTQSPSFLSASVGDRVTITCRASQGISSYLAWYQQKPGKAPKVLIYAASTLQSGVPSRFSGSGSGTEFTLTISSLQPEDFATYYCQQLNSYPPSTFGQGTKLEIK
notes: also called antibody number 11; family A
In the case of B1, the “ACE2 Inhibition (%)” value [1] is reported as 81%, the “EC50 (pM)” value [2] is reported as 1020 pM and the “ACE2 binding [% inhibition]” value [3] is reported as 81%.

B2: SARS2-19C4_f3 (antibody, V domains shown)
VH: EVQLVETGGGLIQPGGSLRLSCAASGITVSSNYMNWVRQAPGKGLEWVSVIYSGGSTFYADSVKGRFTISRDNSKNTLYLQMNSLRAEDTAVYYCARDLEVAGGFDIWGQGTMVTVSL
VL: DIQLTQSPSFLSASVGDRVTITCRASQGISSYLAWYQQKPGKAPKVLIYAASTLQSGVPSRFSGSGSGTKFTLTISSLQPEDFATYYCQQLNSFPPSTFGQGTKLEIK
notes: also called antibody number 20; family A
With B2 the “ACE2 Inhibition (%)” value [1] was 89%, the “EC50 (pM)” value [2] was 492 pM and the “ACE2 binding [% inhibition]” value [3] was 89%.

B3: SARS2-11D5_f3 (antibody, V domains shown)
VH: EVQLVETGGGLIQPGGSLRLSCAASGITVSSNYMSWVRQAPGKGLEWVSVIYSGGSTYYADSVKGRFTISRDNSKNTLYLQMNSLRAEDTAVYYCARDLAVAGAFDIWGQGTMVTVSL
VL: DIQLTQSPSFLSASVGDRVTITCRASQGISSYLAWYQQKPGKAPKVLIYAASTLQSGVPSRFSGSGSGTEFTLTISSLQPEDFATYYCQQLNSYPPSTFGQGTKLEIK
notes: also called antibody number 12
For B3, the “ACE2 Inhibition (%)” value [1] was 66%, the “EC50 (pM)” value [2] was 440 pM and the “ACE2 binding [% inhibition]” value [3] was 66%.

B4: SARS2-1G9_f3 (antibody, V domains shown)
VH: QVQLVQSGAEVKKPGASVKVSCKASGYTFTSYDIIWVRQATGQGLEWMGWMSPNSGNTGYAQKFQGRVTMTRNTSISTAYMELSSLRSEDTAVYYCARFGYGSGALDYYYYGLDVWGQGTTVTVSS
VL: not shown
notes: also called antibody number 5
B4 was tested, and the “ACE2 Inhibition (%)” value [1] was 96%, the “EC50 (pM)” value [2] was 145 pM and the “ACE2 binding [% inhibition]” value [3] was 96%.

B5: SARS2-16C12_f3 (antibody, V domains shown)
VH: QVQLVQSGAEVKKPGASVKVSCKASGYTFTSYDIIWVRQATGQGLEWMGWMSPNSGNTGYAQKFQGRVTMTRNTSISTAYMELSSLRSEDTAVYYCARFGYGSGALDYYYYGLDVWGQGTTVTVSS
VL: not shown
notes: also called antibody number 16; family B
In the case of B5, the “ACE2 Inhibition (%)” value [1] is reported as 87%, the “EC50 (pM)” value [2] is reported as 59 pM and the “ACE2 binding [% inhibition]” value [3] is reported as 87%.

B6: SARS2-8H4_f3 (antibody, V domains shown)
VH: QVQLVQSGAEVKKPGASVKVSCKASGYTFTSYDITWVRQATGQGLEWMGWMSPNSGNTGYAQKFQGRVTMTRNTSISTAYMELSSLRSEDTAVYYCARFGYGSGALDYYYYGLDVWGQGTTVTVSS
VL: EIVLTQSPGTLSLSPGERATLSCRASQSVRSSHLAWYQQKPGQAPRLLIYGASSRATGIPDRFSGSGSGTDFTLTISRLEPEDFAVYYCQQFGSSPITFGQGTRLEIK
notes: also called antibody number 9
B6 was tested, and the “ACE2 Inhibition (%)” value [1] was 93%, the “EC50 (pM)” value [2] was 100 pM and the “ACE2 binding [% inhibition]” value [3] was 93%.

B7: SARS2-1C12_f3 (antibody, V domains shown)
VH: QVQLVQSGAEVKKPGASVKVSCKASGYTFTSYDITWVRQATGQGLEWMGWMSPNSGNTGYTQKFQGRVTMTRNTSISTAYMELSSLRSEDTAVYYCARFGYGSGALDYYYYGLDVWGQGTTVTVSS
VL: EIVLTQSPGTLSLSPGERATLSCRASQSVRSSHLAWYQQKPGQAPRLLIYGASSRATGIPDRFSGSGSGTDFTLTISRLEPEDFAVYYCQQYNNSPITFGQGTRLEIK
notes: also called antibody number 1
In the case of B7, the “ACE2 Inhibition (%)” value [1] is reported as 88%, the “EC50 (pM)” value [2] is reported as 75 pM and the “ACE2 binding [% inhibition]” value [3] is reported as 88%.

B8: SARS2-17F2_f3 (antibody, V domains shown)
VH: QVQLVQSGAEVKRPGASVKVSCKASGYTFTSYDITWVRQATGQGLEWMGWMSPDSGNTGYAQRFQGRVTMTRNTSISTAYMELSSLRSEDTAVYYCARFGYGSGALDYYYYGLDVWGQGTTVTVSS
VL: EIVLTQSPGTLSLSPGERATLSCRASQSVRSSHLAWYQQKPGQAPRLLIYGASSRATGIPDRFSGSGSGTDFTLTISRLEPEDFAVYYCQQYNSSPITFGQGTRLEIK
notes: also called antibody number 18
For B8, the “ACE2 Inhibition (%)” value [1] was 65%, the “EC50 (pM)” value [2] was 151 pM and the “ACE2 binding [% inhibition]” value [3] was 65%.

B9: SARS2-1D10_f3 (antibody, V domains shown)
VH: QVQLVQSGAEVKKPGASVKVSCKASGYTFTSYDIIWVRQASGQGLEWMGWMSPNSGNTGYAQKFQGRVTMTRNTSINTAYMELSSLRSEDTAVYYCARFGYGSGALDYYYYGLDVWGQGTTVTVSS
VL: not shown
notes: also called antibody number 3
With B9 the “ACE2 Inhibition (%)” value [1] was 95%, the “EC50 (pM)” value [2] was 47 pM and the “ACE2 binding [% inhibition]” value [3] was 95%.

B10: SARS2-5H12_f3 (antibody, V domains shown)
VH: QVQLVQSGAEVKKPGTSVKVSCKTSGYTFPSYDIIWVRQATGQGLEWMGWMSPKNGNTGFAQRFQGRVTMTRNTSISTAYMELSSLRSEDTAVYYCARFGYGSGALGYYYYGLDVWGQGTTVTVSS
VL: EIVLTQSPGTLSLSPGERATLSCRASQSVRSSHLAWYRQKPGQAPRLLIYGASSRATGIPDRFSGRGSGTDFTLTISRLEPEDFAVYYCQQYNFSPITFGQGTRLEIK
notes: also called antibody number 7
With B10 the “ACE2 Inhibition (%)” value [1] was 100%, the “EC50 (pM)” value [2] was 377 pM and the “ACE2 binding [% inhibition]” value [3] was 100%.

B11: SARS2-1E2_f3 (antibody, V domains shown)
VH: QVQLVQSGAEVKKPGASVKVSCKASGYTFTSYDITWVRQATGQGLEWMGWMSPNSGNTGYAQKFQGRVTMTRNTSISTAYMELSSLRSEDTAVYYCARFGYGSGALDYYYYGLDVWGQGTTVTVSS
VL: EIVLTQSPGTLSLSPGERATLSCRASQSVRSSHFAWYQQKPGQAPRLLIYGASSRATGIPDRFSGSGSGTDFTLTISRLEPEDFAVCYCQQYGSSPITFGQGTRLEIK
notes: also called antibody number 4
B11 was tested, and the “ACE2 Inhibition (%)” value [1] was 86%, the “EC50 (pM)” value [2] was 218 pM and the “ACE2 binding [% inhibition]” value [3] was 86%.

B12: SARS2-9C6_f3 (antibody, V domains shown)
VH: QVQLVQSGAEVKKPGASVKVSCKASGYTFTSYDITWVRQATGQGLEWMGWMSPKSGNTGYAQKFQGRVTMTRNTSISTAYMELSSLRSEDTAVYYCARFGYGSGALDYYYYGLDVWGQGTTVTVSS
VL: EIVLTQSPGTLSLSPGERATLSCRASQSVRSSHLAWYRQKPGQAPRLLIYGASSRATGIPDRFSGRGSGTDFTLTISRLEPEDFAVYYCQQYNSSPITFGQGTRLEIK
notes: also called antibody number 10
B12 was tested, and the “ACE2 Inhibition (%)” value [1] was 85%, the “EC50 (pM)” value [2] was 105 pM and the “ACE2 binding [% inhibition]” value [3] was 85%.

B13: SARS2-7C10_f3 (antibody, V domains shown)
VH: QVQLVQSGAEVKKPGASVKVSCKASGYTFTSYDITWVRQATGQGLEWMGWMSPNSGNTGYAQKFQGRVTMTRNTSISTAYMELRSLRSEDTAVYYCARFGYGSGALDYYYYGLDVWGQGTTVTVSS
VL: EIVLTQSPGTLSLSPGERATLSCRASQSVRSSHLAWSQQKPGQAPRLLIYGASSRATGIPDRFSGSGSGTDFTLTISRLEPEDFAVYYCQQFGSSPITFGQGTRLEIK
notes: also called antibody number 8
With B13 the “ACE2 Inhibition (%)” value [1] was 85%, the “EC50 (pM)” value [2] was 152 pM and the “ACE2 binding [% inhibition]” value [3] was 85%.

B14: SARS2-1D5_f3 (antibody, V domains shown)
VH: QVQLVQSGAEVKKPGASVKVSCKASGYTFTSYDITWVRQATGQGLEWMGWMSPNSGNTGYAQKFQGRVTMTRNTSISTAYMELNSLRSEDTAVYYCARFGYGSGALDYYYYGLDVWGQGTTVTVSS
VL: EIVLTQSPGTLSLSPGDRATLSCRASQSVRSSHLAWYQQKPGQAPRLLIYGASSRATGIPDRFSGSGSGTDFSLTISRLEPEDFAVYYCQQFGSSPITFGQGTRLEIK
notes: also called antibody number 2
With B14 the “ACE2 Inhibition (%)” value [1] was 94%, the “EC50 (pM)” value [2] was 49 pM and the “ACE2 binding [% inhibition]” value [3] was 94%. The “Inhibition: EC50 [pM]” value [4] was 94 pM.

B15: SARS2-18E7_f3 (antibody, V domains shown)
VH: QVQLVQSGAEVKKPGASVTVSCKASGYTFTSYDIIWVRQATGQGLEWMGWMSPNSGNTGYAQRFQGRVTMTRNTSISTAYMELSSLRSEDTAVYYCARFGYGSGALDYYYYGLDVWGQGTTVTVSS
VL: not shown
notes: also called antibody number 19
For B15, the “ACE2 Inhibition (%)” value [1] was 82%, the “EC50 (pM)” value [2] was 62 pM and the “ACE2 binding [% inhibition]” value [3] was 82%.

B16: SARS2-16C5_f3 (antibody, V domains shown)
VH: QVQLVQSGAEVKKPGASVKVSCKASGYTFTSYDIIWVRQATGQGLEWMGWMSPNSGNTGYAQKFQGRVTMTRNTSIGTAYMELSSLRSEDTAVYFCARFGYGSGALDYYYYGLDVWGQGTTVTVSS
VL: EIVLTQSPGTLSLSPGERATLSCRASQSVRSSHLAWYQQKPGQAPRLLIYGASSRATGIPDRFSGSGSGTDFTLTISRLEPEDFAVYYCQQYNNSPITFGQGTRLEIK
notes: also called antibody number 15; family B
For B16, the “ACE2 Inhibition (%)” value [1] was 94%, the “EC50 (pM)” value [2] was 107 pM and the “ACE2 binding [% inhibition]” value [3] was 94%.

B17: SARS2-17A8_f3 (antibody, V domains shown)
VH: QVQLVQSGAEVKKPGASVKVSCKASGYTFTSYDIIWVRQATGQGLEWMGWMSPNSGNTGYAQKFQGRVTMTKNTSISTAYMELSSLRSEDTAVYYCARFGYGSGALDYYYYGLDVWGQGTTVTVSS
VL: not shown
notes: also called antibody number 17
B17 was tested, and the “ACE2 Inhibition (%)” value [1] was 98%, the “EC50 (pM)” value [2] was 59 pM and the “ACE2 binding [% inhibition]” value [3] was 98%.

B18: SARS2-5D7_f3 (antibody, V domains shown)
VH: QVQLVQSGAEVKKPGTSVKVSCKTSGYTFTSYDIIWVRQATGQGLEWMGWMSPKNGNTGYAQRFQGRVTMTRNTSISTAYMELSSLRSEDTAVYYCARFGYGSGALDYYYYGLDVWGQGTTVTVSS
VL: EIVLTQSPGTLSLSPGERATLSCRASQSVRSSHLAWYRQKPGQAPRLLIYGASSRATGIPDRFSGRGSGTDFTLTISRLEPEDFAVYYCQQYNISPITFGQGTRLEIK
notes: also called antibody number 6
In the case of B18, the “ACE2 Inhibition (%)” value [1] is reported as 97%, the “EC50 (pM)” value [2] is reported as 284 pM and the “ACE2 binding [% inhibition]” value [3] is reported as 97%.

B19: 11G2_f3 (antibody, V domains shown)
VH: QVQLVQSGAEVKKPGASVKVSCKASGYTFTSYDITWVRQATGQGLEWMGWMSPNSGNTGYAQKFQGRVSMTRNTSISTAYMELSSLRSEDTAVYYCARFGYGSGALDYYYYGLDVWGQGTTVTVSS
VL: EIVLTQSPGTLSLSPGERATLSCRASQSVRNSHLAWYQQKPGQAPRLLIYGASSRATGIPDRFSGSGSGTDFTLTISRLEPEDFAVYYCQQFGSSPITFGQGTRLEIK
notes: also called SARS2-11G2_S; antibody number 13
For B19, the “ACE2 Inhibition (%)” value [1] was 90%, the “EC50 (pM)” value [2] was 74 pM and the “ACE2 binding [% inhibition]” value [3] was 90%. The “Inhibition: EC50 [pM]” value [4] was 109 pM.
